The experiment deals with His6‐tagged DP1 (small subunit of DNA polymerase D) of Thermococcus sp. 4557 (Thermococcus sp. 4557). The experiment in a line: SEC; 100 µg of each protein or mixture on Superdex‐200 HR10/30 in 25 mM Tris‐HCl pH 7.5, 100 mM NaCl, 10% glycerol; fractions on SDS–PAGE, Coomassie.

Regarding “His6‐tagged DP1 (small subunit of DNA polymerase D) of Thermococcus sp. 4557 (enzyme)”, the stoichiometry N was determined as 2.

For orientation: stoichiometry N means the number of molecules, sites or subunits per partner or assembly.

(Values after publication PMC6741145.)
